The text below walks through data of patent US20110027290A1 (Eli Lilly, published 2011).

The target of experiment [1] is T1, human IL-17 (human, UniProt Q16552 20-155, limits assumed).
T1 sequence: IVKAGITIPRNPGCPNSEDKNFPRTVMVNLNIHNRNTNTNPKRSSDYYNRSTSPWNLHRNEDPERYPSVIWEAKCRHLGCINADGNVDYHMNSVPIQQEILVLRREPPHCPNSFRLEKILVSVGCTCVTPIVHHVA
The experiment can be described thus: cell-based or functional assay.

The target of another experiment is T2, human IL-17D (human, UniProt Q8TAD2 18-202, limits assumed).
T2 sequence (looked up): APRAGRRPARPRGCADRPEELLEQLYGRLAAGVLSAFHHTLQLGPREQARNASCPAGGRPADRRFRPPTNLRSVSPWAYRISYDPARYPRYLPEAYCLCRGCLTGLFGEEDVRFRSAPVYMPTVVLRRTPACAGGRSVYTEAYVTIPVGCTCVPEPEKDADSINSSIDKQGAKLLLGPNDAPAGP
Description: ELISA, antigen coated on plate. In general terms: An ELISA detects its analyte on a solid surface through an enzyme-linked reagent.

In another experiment the target is T3, human IL-17E (human, UniProt Q9H293 33-177).
T3 sequence (looked up): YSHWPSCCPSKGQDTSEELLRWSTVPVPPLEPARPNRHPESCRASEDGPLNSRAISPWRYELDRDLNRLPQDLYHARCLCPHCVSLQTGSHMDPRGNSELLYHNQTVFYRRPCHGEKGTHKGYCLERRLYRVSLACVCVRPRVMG
Description: ELISA, antigen coated on plate.

For the next experiment, the target named is T4, human IL-17C (human, UniProt Q9P0M4 19-197).
T4 sequence (looked up): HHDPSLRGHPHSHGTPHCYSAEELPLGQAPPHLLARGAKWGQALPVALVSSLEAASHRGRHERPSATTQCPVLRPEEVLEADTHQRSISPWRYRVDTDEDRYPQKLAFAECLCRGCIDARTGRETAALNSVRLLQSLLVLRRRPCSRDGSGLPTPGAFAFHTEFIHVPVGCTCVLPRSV
The experiment can be described thus: ELISA, antigen coated on plate.

Another experiment has as its target T5, human IL-22 (human, UniProt Q9GZX6 34-179).
T5 construct: Negative control antigen
T5 sequence (looked up): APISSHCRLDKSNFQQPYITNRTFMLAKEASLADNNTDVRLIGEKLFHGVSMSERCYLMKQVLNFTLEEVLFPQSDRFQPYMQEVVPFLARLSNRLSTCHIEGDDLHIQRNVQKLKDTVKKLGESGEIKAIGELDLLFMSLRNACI
Description: ELISA, antigen coated on plate.

Another experiment addresses T6, human IL-17F (human, UniProt Q96PD4 31-163).
T6 sequence (looked up): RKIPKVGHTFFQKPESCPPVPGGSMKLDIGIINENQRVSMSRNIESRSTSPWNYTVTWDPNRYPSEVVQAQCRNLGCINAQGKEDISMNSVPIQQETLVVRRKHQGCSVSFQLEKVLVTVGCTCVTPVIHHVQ
Description: ELISA, antigen coated on plate.

The next experiment has as its target T7, human IL-17B (human, UniProt Q9UHF5 21-180).
T7 sequence (looked up): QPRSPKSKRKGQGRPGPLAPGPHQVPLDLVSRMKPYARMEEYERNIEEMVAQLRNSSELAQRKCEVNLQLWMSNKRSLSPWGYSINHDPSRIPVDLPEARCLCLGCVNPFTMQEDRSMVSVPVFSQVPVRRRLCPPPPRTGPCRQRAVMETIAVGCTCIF
The experiment can be described thus: ELISA, antigen coated on plate.

The next experiment addresses T8, mouse IL-17 (murine, UniProt Q62386 26-158, limits assumed).
T8 construct: also called murine IL-17
T8 sequence: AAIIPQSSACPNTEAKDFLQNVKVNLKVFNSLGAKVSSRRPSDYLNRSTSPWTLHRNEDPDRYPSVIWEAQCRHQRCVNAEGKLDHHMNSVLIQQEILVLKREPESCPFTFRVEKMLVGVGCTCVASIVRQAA
Description: ELISA, antigen coated on plate.

Experiment [2] concerns the target T1, human IL-17. The experiment can be described thus: SPR (BIACORE 2000), mAb captured on Protein A, IL-17 injected, 25 C, 1:1 with mass transfer model.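 Further: CM4 chip with immobilized Protein A, HBS-EP running buffer pH 7.4, IL-17 titrated downward from 10 nM in twofold steps, 20 min dissociation phase.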 Background: In SPR one partner is held on a chip, and binding of the other changes the refractive index at the surface.
Description: (§1) A BIACORE® 2000 instrument is used to measure antigen-antibody binding kinetics and affinity. The instrument utilizes the optical properties of surface plasmon resonance to detect alteration in protein concentration of interacting molecules within a dextran biosensor matrix. Except as noted, all reagents and materials are purchased from BIACORE® AB. All measurements are performed at 25° C. Samples are resuspended in HBS-EP buffer to a final concentration of 2 μg/ml (150 mM sodium chloride, 3 mM EDTA, 0.005% (w/v) surfactant P-20, and 10 mM HEPES, pH 7.4). Protein A is immobilized on flow cells 1 to 4 of a CM4 sensor chip at a level of 500 response units using an amine coupling kit.
(§2) Binding is evaluated using multiple analytical cycles. […] Association and dissociation rates for each cycle are evaluated using a “1:1 with mass transfer” binding model in the BIAevaluation software.
The target of another experiment is T9, cynomolgus monkey IL-17 (cynomolgus monkey, UniProt Q16552 24-155 (human entry), limits assumed).
T9 construct: Not commercially available; cloned and expressed; also called CYNO IL-17
T9 chain: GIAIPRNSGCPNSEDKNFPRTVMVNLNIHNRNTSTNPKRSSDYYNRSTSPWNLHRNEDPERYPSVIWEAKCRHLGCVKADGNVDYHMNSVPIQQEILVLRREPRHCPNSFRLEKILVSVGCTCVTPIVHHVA
The experiment is described as above.

Experiment [3] deals with New Zealand white rabbit IL-17 (rabbit). Description: SPR (BIACORE 2000), mAb captured on Protein A; biphasic, heterogeneous ligand model, second of two affinities.
Experiment [4] shares this target. The experiment can be described thus: SPR (BIACORE 2000), mAb captured on Protein A; biphasic, heterogeneous ligand model, first of two affinities.

Chain of New Zealand white rabbit IL-17 (rabbit) (chain, as listed by the source limits assumed, form in doubt): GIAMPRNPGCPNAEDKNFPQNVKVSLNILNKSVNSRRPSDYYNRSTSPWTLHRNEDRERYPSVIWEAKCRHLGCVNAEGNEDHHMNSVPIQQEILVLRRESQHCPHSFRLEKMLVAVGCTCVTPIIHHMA
Description for cynomolgus monkey IL-17: as §1, §2
Description for human IL-17B: (§3) In an exemplary assay, ELISA plate wells (Nunc Immuno Maxisorp) are coated with 100 μl (0.5 ng/ml in 1× coating buffer (BioFx)) of IL-17 family member proteins (R&D Systems) sealed and incubated overnight at 4° C. The solution in the well is removed by flicking and blocking buffer (200 μl 1.5% BSA in PBS) is added. The plates are incubated on a rotating shaker for 30 minutes at room temperature. Then 100 μl of an antibody to be tested is added per well at varying concentrations (e.g., 2, 0.4, 0.08, 0.016, 0.0032 and 0 μg/ml). The plates are again incubated overnight (4° C.) followed by warming on a rotating shaker (60 min room temp). Each plate-well is then washed five times with buffer (1× Ish buffer, BioFX). After washing, an appropriate commercially available HRP-conjugated secondary antibody (1:2000 in PBS with 1.5% BSA) is added (100 μl/well). Plates are re-incubated on a rotating shaker (60 min. room temp.) followed by buffer washing (5×) as described above. The colorimetric signal is developed by adding TMB (100 μl/well) until saturation (approx 3-5 min.) then further development is ended by adding stop solution (100 μl/well, BioFX). The color signal is measured at 450 nm absorbance using any appropriate ELISA plate reader. The degree of binding is proportional to color signal production.
Description for human IL-17D: as §3
Description for human IL-17E: as §3
Description for human IL-17F: as §3
Description for human IL-22: as §3
Description for mouse IL-17: as §3

As for IgG4 negative control (antibody), in the experiment with human IL-17 [1], the AVG GROα, pg/ml at 2.56 pM antibody (60 ng/ml IL-17, HT-29 cells) is 1240 pg/ml; the AVG GROα, pg/ml at 12.8 pM antibody (60 ng/ml IL-17, HT-29 cells) came out at 1350 pg/ml; the AVG GROα, pg/ml at 64.0 pM antibody (60 ng/ml IL-17, HT-29 cells) is 1380 pg/ml; the AVG GROα, pg/ml at 320.0 pM antibody (60 ng/ml IL-17, HT-29 cells) is 1390 pg/ml. Also, in the experiment with human IL-17 [1], the AVG GROα, pg/ml at 1,600.0 pM antibody (60 ng/ml IL-17, HT-29 cells) was 1370 pg/ml; the AVG GROα, pg/ml at 8,000.0 pM antibody (60 ng/ml IL-17, HT-29 cells) worked out at 1420 pg/ml; the AVG GROα, pg/ml at 40,000.0 pM antibody (60 ng/ml IL-17, HT-29 cells) was determined as 1300 pg/ml.

B1: Fab 121 (Fab, V domains shown)
VH: QVQLVQSGAEVKKPGSSVKVSCKASGYSFTDYHISWVRQAPGQGLEWMGVINPEYGTTDYNQRFKGRVTITADESTSTAYMELSSLRSEDTAVYYCARYDYFTGTGAYWGQGTLVTVSS
VL: DIVMTQTPLSLSVTPGQPASISCRSSQSLKHSRGNTFLHWYLQKPGQSPQLLIYKVSNRFIGVPDRFSGSGSGTDFTLKISRVEAEDVGVYYCSQSTHYPFTFGQGTKLEIK
notes: constant domains are not specified
On to B1, for which the binding result in the experiment with human IL-17D, with human IL-17E, in the experiment with human IL-17C, with human IL-22, with human IL-17F and with human IL-17B was “no binding” in each case. Besides, the binding result with mouse IL-17 was “no binding”.

B2: mAb 131 (full-length, IgG4 Fc region) (antibody, V domains shown)
VH: QVQLVQSGAEVKKPGSSVKVSCKASGYSFTDYHIHWVRQAPGQGLEWMGVINPEYGTTDYNQRFKGRVTITADESTSTAYMELSSLRSEDTAVYYCARYDYFTGTGVYWGQGTLVTVSS
VL: DIVMTQTPLSLSVTPGQPASISCRSSKSLVHSRGNTYLHWYLQKPGQSPQLLIYKVSNRFIGVPDRFSGSGSGTDFTLKISRVEAEDVGVYYCSQSTHYPFTFGQGTKLEIK
As a reminder, the Kd is the concentration at which binding is half-saturated. One may read the koff as a measure of how fast the partners let go of each other. For orientation: kon means a measure of how fast the partners come together. In the experiment with human IL-17 [2], B2 came in with a Kd of 2.9 pM, a koff of 1.6e-05 s⁻¹ and a kon of 5.4e+06 M⁻¹ s⁻¹.

B3: mAb 126 (full-length, IgG4 Fc region) (antibody, V domains shown)
VH: QVQLVQSGAEVKKPGSSVKVSCKASGYSFTDYHIHWVRQAPGQGLEWMGVINPMYGTTDYNQRFKGRVTITADESTSTAYMELSSLRSEDTAVYYCARYDYFTGTGVYWGQGTLVTVSS
VL: DIVMTQTPLSLSVTPGQPASISCRSSRSLVHSRGNTYLHWYLQKPGQSPQLLIYKVSNRFIGVPDRFSGSGSGTDFTLKISRVEAEDVGVYYCSQSTHLPFTFGQGTKLEIK
notes: Full-length mAb with an IgG4 Fc region
As for B3, the equilibrium dissociation constant (Kd) with cynomolgus monkey IL-17 was 0.8 pM. Besides, the “IC50, IL-17-induced GROα secretion from HT-29 cells” value with human IL-17 [1] is around 560 pM.

B4: mAb 103 (full-length, IgG4 Fc region) (antibody, V domains shown)
VH: QVQLVQSGAEVKKPGSSVKVSCKASGYSFTDYHIHWVRQAPGQGLEWMGVINPEYGTTDYNQRFKGRVTITADESTSTAYMELSSLRSEDTAVYYCARYDYFTGTGAYWGQGTLVTVSS
VL: DIVMTQTPLSLSVTPGQPASISCRSSQSLRHSRGNTYLHWYLQKPGQSPQLLIYKVSNIFSGVPDRFSGSGSGTDFTLKISRVEAEDVGVYYCSQSTHYPFTFGQGTKLEIK
notes: also called full-length mAb 103
Regarding B4, the dissociation constant Kd in [3] stood at 18100 pM; with human IL-17 [2], 1.4 pM; with cynomolgus monkey IL-17, 1.3 pM; in experiment [4] it was 2000 pM. Also, the koff came to 0.192 s⁻¹ in experiment [3], 1.5e-05 s⁻¹ with human IL-17 [2], 1.1e-05 s⁻¹ with cynomolgus monkey IL-17 and 0.00036 s⁻¹ in [4]. The kon in [3] turned out to be 1.06e+07 M⁻¹ s⁻¹; with human IL-17 [2] it was 1.1e+07 M⁻¹ s⁻¹; with cynomolgus monkey IL-17 it was 8.8e+06 M⁻¹ s⁻¹; in [4], 180000 M⁻¹ s⁻¹.

B5: mAb 118 (full-length, IgG4 Fc region) (antibody, V domains shown)
VH: QVQLVQSGAEVKKPGSSVKVSCKASGYSFTDYHISWVRQAPGQGLEWMGVINPMYGTTDYNQRFKGRVTITADESTSTAYMELSSLRSEDTAVYYCARYDYYTGTGVYWGQGTLVTVSS
VL: DIVMTQTPLSLSVTPGQPASISCRSSQSLVHSRGNTFLHWYLQKPGQSPQLLIYKVSNRFIGVPDRFSGSGSGTDFTLKISRVEAEDVGVYYCSQSTHYPFTFGQGTKLEIK
For the molecule B5, in the experiment with human IL-17 [2], the dissociation constant Kd was 3.9 pM, the dissociation rate constant (koff) is 2e-05 s⁻¹ and the kon is 5e+06 M⁻¹ s⁻¹.

B6: Fab 126 (Fab, V domains shown)
VH: QVQLVQSGAEVKKPGSSVKVSCKASGYSFTDYHIHWVRQAPGQGLEWMGVINPMYGTTDYNQRFKGRVTITADESTSTAYMELSSLRSEDTAVYYCARYDYFTGTGVYWGQGTLVTVSS
VL: DIVMTQTPLSLSVTPGQPASISCRSSRSLVHSRGNTYLHWYLQKPGQSPQLLIYKVSNRFIGVPDRFSGSGSGTDFTLKISRVEAEDVGVYYCSQSTHLPFTFGQGTKLEIK
notes: as for B1
Turning to B6, the binding result with human IL-17D, with human IL-17E, with human IL-17C, with human IL-22, with human IL-17B and with mouse IL-17 was “no binding” in each case.

B7: mAb 104 (full-length, IgG4 Fc region) (antibody, V domains shown)
VH: QVQLVQSGAEVKKPGSSVKVSCKASGYSFTDYHIHWVRQAPGQGLEWMGVINPEYGTTDYNQRFKGRVTITADESTSTAYMELSSLRSEDTAVYYCARYDYFTGTGAYWGQGTLVTVSS
VL: DIVMTQTPLSLSVTPGQPASISCRSSKSLVHSRGNTFLHWYLQKPGQSPQLLIYKVSTRFSGVPDRFSGSGSGTDFTLKISRVEAEDVGVYYCSQSTHYPFTFGQGTKLEIK
notes: also called full-length mAb 104
B7: the Kd in [3] came to 20000 pM; with human IL-17 [2] it was 1.7 pM; in the experiment with cynomolgus monkey IL-17, 0.5 pM; in experiment [4], 1900 pM. Also, the off-rate constant (koff) in [3] turned out to be 0.07 s⁻¹; in the experiment with human IL-17 [2] it was 1.1e-05 s⁻¹; in the experiment with cynomolgus monkey IL-17, 5e-06 s⁻¹; in experiment [4] it was 0.00018 s⁻¹. The on-rate (kon) in experiment [3] was 4e+06 M⁻¹ s⁻¹; with human IL-17 [2] it was 7.7e+06 M⁻¹ s⁻¹; with cynomolgus monkey IL-17 it was 9.4e+06 M⁻¹ s⁻¹; in experiment [4], 100000 M⁻¹ s⁻¹.

B8: mAb 121 (full-length, IgG4 Fc region) (antibody, V domains shown)
VH: QVQLVQSGAEVKKPGSSVKVSCKASGYSFTDYHISWVRQAPGQGLEWMGVINPEYGTTDYNQRFKGRVTITADESTSTAYMELSSLRSEDTAVYYCARYDYFTGTGAYWGQGTLVTVSS
VL: DIVMTQTPLSLSVTPGQPASISCRSSQSLKHSRGNTFLHWYLQKPGQSPQLLIYKVSNRFIGVPDRFSGSGSGTDFTLKISRVEAEDVGVYYCSQSTHYPFTFGQGTKLEIK
notes: as for B3
As for B8, the equilibrium dissociation constant (Kd) in experiment [3] was found to be 1500 pM; with human IL-17 [2] it was 1.6 pM; in the experiment with cynomolgus monkey IL-17 it was 1.1 pM; in experiment [4] it was 510 pM. The koff stood at 0.021 s⁻¹ in [3], 1.5e-05 s⁻¹ in the experiment with human IL-17 [2], 7e-06 s⁻¹ with cynomolgus monkey IL-17 and 0.0004 s⁻¹ in experiment [4]. Moreover, the association rate constant (kon) in experiment [3] is 1.7e+07 M⁻¹ s⁻¹; in the experiment with human IL-17 [2], 1e+07 M⁻¹ s⁻¹; with cynomolgus monkey IL-17, 7.8e+06 M⁻¹ s⁻¹; in experiment [4] it was 800000 M⁻¹ s⁻¹. Besides, in the experiment with human IL-17 [1], the “decrease of the mean mouse KC level after human IL-17 injection in mice, 20 µg/mouse, compared to a control antibody” value is around 3 fold.
